The assay addresses T1, tssk 2 fused to the GAL4 DNA binding domain (DNA-BD) (human, UniProt P04386 1-147 (Saccharomyces cerevisiae entry), limits assumed).
T1 construct: Yeast two-hybrid bait expressed in reporter strain AH109; also called bait gene (tssk 2); fusion protein of TSSK2 with the DNA-BD
The assay can be described thus: yeast two-hybrid, growth in His-free medium (AH109 reporter strain).

B1: GAL4 activation domain alone (GAL-AD plasmid) (other, UniProt P04386 768-881, looked up)
chain: ANFNQSGNIADSSLSFTFTNSSNGPNLITTQTNSQALSQPIASSNVHDNFMNNEITASKIDDGNNSKPLSPGWTDQTAYNAFGITTGMFNTTTMDDVYNYLFDDEDTPPNPKKE
notes: also called GAL-AD alone
For the molecule B1, the binding result is on record as “no binding”.

The record behind these values is patent publication EP1443117B1 (UNIVERSITY OF VIRGINIA PATENT FOUNDATION, dated 2010).
